{"source": "paper PMC4909234", "target": "human complement factor H (CFH) (human) (UniProt P08603)", "sequence (P08603 19-1231)": "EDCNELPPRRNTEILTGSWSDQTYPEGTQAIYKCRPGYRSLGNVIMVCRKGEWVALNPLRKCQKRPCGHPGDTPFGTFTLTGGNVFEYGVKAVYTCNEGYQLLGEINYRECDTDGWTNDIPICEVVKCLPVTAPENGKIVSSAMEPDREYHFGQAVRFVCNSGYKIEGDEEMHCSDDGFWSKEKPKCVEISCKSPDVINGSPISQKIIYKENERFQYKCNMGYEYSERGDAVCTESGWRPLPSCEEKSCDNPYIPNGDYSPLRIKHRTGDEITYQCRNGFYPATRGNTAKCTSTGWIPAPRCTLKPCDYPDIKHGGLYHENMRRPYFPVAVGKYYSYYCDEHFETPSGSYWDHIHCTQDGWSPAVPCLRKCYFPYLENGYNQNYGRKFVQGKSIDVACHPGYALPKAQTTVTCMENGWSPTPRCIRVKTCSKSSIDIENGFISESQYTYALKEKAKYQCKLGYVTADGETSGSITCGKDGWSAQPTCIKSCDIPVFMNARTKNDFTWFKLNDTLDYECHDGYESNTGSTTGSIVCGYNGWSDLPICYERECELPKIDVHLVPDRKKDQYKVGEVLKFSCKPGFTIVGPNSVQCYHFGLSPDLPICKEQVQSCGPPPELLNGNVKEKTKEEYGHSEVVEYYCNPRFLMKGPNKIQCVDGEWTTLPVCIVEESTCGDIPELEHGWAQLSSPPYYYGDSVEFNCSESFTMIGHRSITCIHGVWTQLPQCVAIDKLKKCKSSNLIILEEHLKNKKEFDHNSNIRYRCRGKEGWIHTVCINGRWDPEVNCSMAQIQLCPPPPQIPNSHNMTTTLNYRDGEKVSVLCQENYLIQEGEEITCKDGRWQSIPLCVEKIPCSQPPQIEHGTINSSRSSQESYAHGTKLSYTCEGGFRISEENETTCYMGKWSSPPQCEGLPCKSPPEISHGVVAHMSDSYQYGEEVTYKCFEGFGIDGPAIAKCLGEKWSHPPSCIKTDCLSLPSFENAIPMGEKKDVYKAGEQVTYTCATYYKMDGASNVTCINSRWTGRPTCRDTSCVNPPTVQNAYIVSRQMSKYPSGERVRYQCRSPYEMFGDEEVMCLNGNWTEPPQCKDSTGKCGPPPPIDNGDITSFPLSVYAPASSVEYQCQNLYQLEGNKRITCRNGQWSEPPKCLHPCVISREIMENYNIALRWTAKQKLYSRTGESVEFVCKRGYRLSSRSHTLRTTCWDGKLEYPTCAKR", "test": "ELISA; […] (20 mM HEPES, 50 mM NaCl, pH 7.4) […]", "data": [{"substance": "Recombinant BclA protein (rBclA), His-tagged (from UniProt Q81JD7 1-382) (natural protein)", "values": [{"measurement": "Kd", "value": 910, "unit": "nM"}]}]}
